Data from publication PMC8154254, “On the Track of Long-Range Electron Transfer in B-Type Dye-Decolorizing Peroxidases: Identification of a Tyrosyl Radical by Computational Prediction and Electron Paramagnetic Resonance Spectroscopy” (Biochemistry, 2021).

tested on: CCn1c(=NN=c2sc3cc(S(=O)(=O)O)ccc3n2CC)sc2cc(S(=O)(=O)O)ccc21; assay: purified protein; settings: 40 μM H2O2, 100 nM enzyme, 50 mM phosphate-citrate pH 5.0, room temperature

**Q.** How did the Km turn out when “KpDyP (B-type Klebsiella pneumoniae dye-decolorizing peroxidase) (Klebsiella pneumoniae; W18F/Y92F)” was run?
**A.** 84 ± 8 µM

**Q.** And the kcat?
**A.** 6.5 s⁻¹

**Q.** What about the kcat/Km of the same substance?
**A.** 77000 M⁻¹ s⁻¹

**Q.** Which results are given for “KpDyP (B-type Klebsiella pneumoniae dye-decolorizing peroxidase) (Klebsiella pneumoniae; Y237F)”?
**A.** Km: 36 ± 7 µM; kcat: 4.6 s⁻¹; kcat/Km: 125000 M⁻¹ s⁻¹

**Q.** With “KpDyP (B-type Klebsiella pneumoniae dye-decolorizing peroxidase) (Klebsiella pneumoniae; W18F)” as the substance, how does the Km read?
**A.** 54 ± 8 µM

**Q.** And the kcat?
**A.** 4.7 s⁻¹

**Q.** And the kcat/Km?
**A.** 86000 M⁻¹ s⁻¹

**Q.** Which results are given for “KpDyP (B-type Klebsiella pneumoniae dye-decolorizing peroxidase) (Klebsiella pneumoniae; Y247F/Y92F)”?
**A.** Km: 345 ± 73 µM; kcat: 12.8 s⁻¹; kcat/Km: 37000 M⁻¹ s⁻¹

**Q.** With “KpDyP (B-type Klebsiella pneumoniae dye-decolorizing peroxidase) (Klebsiella pneumoniae; Y247F)” as the substance, how does the Km read?
**A.** 270 ± 16 µM

**Q.** And the kcat?
**A.** 8.7 s⁻¹

**Q.** And the kcat/Km?
**A.** 33000 M⁻¹ s⁻¹
